In test [1] the target is T1, human Folate Receptor Alpha (FOLR1) on cells (human, UniProt P15328 25-234).
T1 construct: whole, on cells; Endogenous on IGROV-1, OVCAR-3, SKOV-3, HT-29 cells; transfected on CHO cells; the cell is named under assay; also called FRα; FRa
Description: flow cytometry, IGROV-1 cells.

Test [2] concerns the target T1, human Folate Receptor Alpha (FOLR1) on …. Description: flow cytometry, CHO cells stably expressing human FOLR1. (In flow cytometry, cells or beads pass a laser one at a time.)
Test [3] has the same target. As to the kind of experiment: cell binding, IGROV-1 cells.
Test [4] has the same target. As to the kind of experiment: cell binding, OVCAR-3 cells.
A further test deals with T2, CHO_huFOLR2 (human, UniProt P14207).
T2 construct: stably expressed on CHO cells; also called human FOLR2 on CHO cells; folate receptor beta
T2 sequence (P14207 17-230 limits assumed): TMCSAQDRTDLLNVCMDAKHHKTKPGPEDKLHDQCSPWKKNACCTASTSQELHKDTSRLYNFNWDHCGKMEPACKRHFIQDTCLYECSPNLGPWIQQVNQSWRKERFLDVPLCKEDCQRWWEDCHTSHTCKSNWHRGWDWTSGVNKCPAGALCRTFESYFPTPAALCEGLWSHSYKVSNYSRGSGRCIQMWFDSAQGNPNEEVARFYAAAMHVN
Description: flow cytometry on CHO cells stably expressing human FOLR2, MFI fold over background. The protocol:
Anti-FOLR1 HCAb binding to CHO cells stably expressing human FOLR2 (also known as folate receptor beta, FRβ), and CHO cells stably expressing human IZUMO1R (also known as folate receptor delta, FOLR4, FRδ, JUNO) was analyzed for a number of different clones. Data are presented in FIG. 2, panels A-B, as MFI fold over background. Insets show binding of positive control anti-FOLR2 and anti-IZUMO1R antibodies, respectively, in dark grey, compared to the respective isotype control in light grey.

In test [5] the target is T3, cyno FOLR1 on CHO cells (cyno (Cynomolgus macaque), UniProt A0A2K5U044 25-234).
T3 construct: whole, on cells; also called cyFOLR1
T3 sequence (A0A2K5U044 entry or part of it): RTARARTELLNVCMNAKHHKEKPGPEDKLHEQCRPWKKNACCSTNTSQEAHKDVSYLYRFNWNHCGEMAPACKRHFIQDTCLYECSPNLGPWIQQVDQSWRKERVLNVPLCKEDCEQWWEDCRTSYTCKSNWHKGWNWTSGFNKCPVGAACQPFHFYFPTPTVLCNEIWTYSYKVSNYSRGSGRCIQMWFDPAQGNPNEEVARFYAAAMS
As to the kind of experiment: flow cytometry, CHO cells stably expressing cyno FOLR1.

Test [6] has as its target T3, cyno FOLR1 on CHO cells. As to the kind of experiment: cell binding, CHO cells stably expressing cyno FOLR1.
For another test, the target named is recombinant human FOLR1 (human, UniProt P15328 25-234). As to the kind of experiment: BLI, Octet QK-384, recombinant human FOLR1. The procedure: As used herein, the “Kd” or “Kd value” refers to a dissociation constant determined by BioLayer Interferometry, using an Octet QK384 instrument (Fortebio Inc., Menlo Park, CA) in kinetics mode. For example, anti-mouse Fc sensors are loaded with mouse-Fc fused antigen and then dipped into antibody-containing wells to measure concentration dependent association rates (kon). Antibody dissociation rates (koff) are measured in the final step, where the sensors are dipped into wells containing buffer only. The Kd is the ratio of koff/kon. (For further details see, Concepcion, J, et al., Comb Chem High Throughput Screen, 12 (8), 791-800, 2009).
recombinant human FOLR1, sequence (P15328 25-234 limits assumed): as the sequence (A0A2K5U044 entry or part of it) above, with T2I, R4W, K37R, P146A, Y171H counted along it
Table 17 summarizes affinity and epitope bin information for anti-FOLR1 heavy chain antibodies (HCAbs). Column 1 indicates the clone ID of the HCAb. Column 2 indicates the affinity of the HCAb to recombinant human FOLR1 as measured by Bio-layer interferometry (BLI) using an Octet QK-384. Column 3 indicates the epitope bin of HCAb as determined by a competition BLI binding experiment using an Octet QK-384.
A general note: In BLI a coated tip is dipped into the sample, and binding shifts an interference pattern.

Test [7] deals with T1, human Folate Receptor Alpha (FOLR1) on …. Description: cell binding, CHO cells stably expressing human FOLR1.
The target of test [8] is T4, mouse FOLR1 on CHO cells (mouse, UniProt P35846 25-232).
T4 construct: whole, on cells; also called msFOLR1
T4 sequence (P35846 25-232): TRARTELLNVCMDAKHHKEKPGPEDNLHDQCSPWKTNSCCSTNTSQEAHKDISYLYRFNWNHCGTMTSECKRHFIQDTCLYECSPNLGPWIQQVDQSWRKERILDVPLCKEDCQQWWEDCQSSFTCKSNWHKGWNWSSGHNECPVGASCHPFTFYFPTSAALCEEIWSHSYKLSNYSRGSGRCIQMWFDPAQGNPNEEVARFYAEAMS
Description: flow cytometry on CHO cells stably expressing mouse FOLR1, MFI fold over background. The procedure: IGROV-1 cells, OVCAR-3 cells, CHO cells stably expressing human FOLR1, CHO cells stably expressing cyno FOLR1, and CHO cells stably expressing mouse FOLR1 were incubated with increasing amounts of the indicated antibodies, and binding characteristics were analyzed. Data are presented in FIG. 1, panels A-E, as MFI fold over background.

Test [9] deals with T5, FOLR3 (folate receptor gamma) (UniProt P41439 23-245, limits assumed).
T5 construct: also called FRγ
T5 sequence (P41439 23-245 limits assumed): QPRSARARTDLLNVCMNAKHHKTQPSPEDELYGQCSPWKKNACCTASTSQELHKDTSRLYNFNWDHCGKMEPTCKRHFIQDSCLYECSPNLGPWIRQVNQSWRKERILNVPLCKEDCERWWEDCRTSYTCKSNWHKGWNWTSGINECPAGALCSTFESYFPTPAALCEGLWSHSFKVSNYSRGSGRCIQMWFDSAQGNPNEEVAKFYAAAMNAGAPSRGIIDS
As to the kind of experiment: BLI (Octet).

Test [10] has as its target T4, mouse FOLR1 on CHO cells. Description: cell binding, CHO cells stably expressing mouse FOLR1.

Eleven molecules from patent publication US20240002498A1 (TENEOBIO, published 2024) can be followed below.

Usually EC50 stands for the concentration needed to bring the measured effect to its halfway point. The low end stands for a more potent agent, the high end for a less potent agent. As usually defined, the Kd is the free concentration of one partner at which half of the binding sites on the other are occupied at equilibrium, for simple one-to-one binding.

T1 sequence (P15328 25-234): as the sequence (A0A2K5U044 entry or part of it) above, with T2I, R4W, K37R, P146A, Y171H counted along it

B1: anti-FOLR1 heavy chain antibody (HCAb, UniAb) clone ID 352491 (antibody, V domains shown)
VH: EVQLVESGGGLVQPGGSLRLSCAASGFSFSSYSMKWVRQAPGKGLEWVSYISSSSDTIEYAGSVKGRFTISRDNAKNSLYLQMNSLRDEDTAVYYCASVGLDFDYRGQGTLVTVSS
notes: Heavy chain-only antibody (no light chain), F18 family
For the molecule B1, the “fold over background MFI” value is 1640 fold over background in [1], 1480 fold over background in test [2] and 159 fold over background with cyno FOLR1 on CHO cells [5]. Further, the EC50 is 5 nM in test [3], 3.3 nM in test [4], 2.1 nM in the test with cyno FOLR1 on CHO cells [6] and 4.3 nM in [7]. In the test with CHO_huFOLR2, the binding result was “no binding (tested: 100 nM)”. In addition, the Kd with recombinant human FOLR1 was determined as 37.4 nM.

B2: anti-FOLR1 heavy chain antibody (HCAb, UniAb) clone ID 358614 (antibody, V domains shown)
VH: EVQLVESGGGLVQPGGSLRLSCAASGFSFSSYSMKWVRQAPGKGLEWVSYISRSSDTIEYADSVKGRFTISRDNAKNSLYLQMNSLRDEDTAVYYCASVGLDFDYRGQGTLVTVSS
notes: as for B1
Regarding B2, the “fold over background MFI” value in test [2] was 886 fold over background; in the test with cyno FOLR1 on CHO cells [5], 735 fold over background. The EC50 stood at 2.1 nM in [3], 0.7 nM in test [4], 2.7 nM in the test with cyno FOLR1 on CHO cells [6] and 1.9 nM in test [7]. Besides, the binding result with mouse FOLR1 on CHO cells [8] is “no binding (tested: 100 nM (log[nM] 2))”; in [9], “no binding”. In the test with recombinant human FOLR1, the Kd came out at 26.8 nM.

B3: anti-FOLR1 heavy chain antibody (HCAb, UniAb) clone ID 358598 (antibody, V domains shown)
VH: EVQLVESGGGLVQPGGSLRLSCAASGFSFSSYSMNWVRQAPGKGLEWVSYITSSSDTIEYADSVKGRFTISRDNAKNSLYLQMNSLRDEDTAVYYCASVGLDFDYRGQGTLVTVSS
notes: as for B1
For the molecule B3, the “fold over background MFI” value turned out to be 1890 fold over background in test [2] and 1010 fold over background in the test with cyno FOLR1 on CHO cells [5]. The EC50 in test [3] turned out to be 2.6 nM; in [4] it was 0.6 nM; in the test with cyno FOLR1 on CHO cells [6], 2.4 nM; in test [7], 1.9 nM. Besides, the binding result was “no binding (tested: 100 nM (log[nM] 2))” with mouse FOLR1 on CHO cells [8] and “no binding” in test [9]. In addition, the Kd with recombinant human FOLR1 was 22.7 nM.

B4: anti-FOLR1 heavy chain antibody (HCAb, UniAb) clone ID 352496 (antibody, V domains shown)
VH: EVQLVESGGGLVKPGGSLRLSCAASGFSFSSYSMKWVRQAPGKGLEWVSYISSSSDTIEYADSVKGRFTISRDNAKNSLYLQMNSLRDEDTAVYYCASVGLDFDYRGQGTLVTVSS
notes: as for B1
Turning to B4, the “fold over background MFI” value in test [1] came to 1740 fold over background; in test [2] it was 1410 fold over background; in the test with cyno FOLR1 on CHO cells [5], 157 fold over background. Further, the EC50 worked out at 3.8 nM in test [3], 1.1 nM in [4], 4.3 nM with cyno FOLR1 on CHO cells [6] and 3.5 nM in test [7]. Moreover, in the test with CHO_huFOLR2, the binding result is “no binding (tested: 100 nM)”. Also, in the test with recombinant human FOLR1, the Kd was 41.8 nM.

B5: anti-FOLR1 heavy chain antibody (HCAb, UniAb) clone ID 352672 (antibody, V domains shown)
VH: EVQLVESGGGLVQPGGSLRLSCAASGFSFSSYSMKWVRQAPGKGLEWVSYISRSSDTIEYADSVKGRFTISRDNAKNSLYLQMNSLRDEDTAVYYCATVGLDFDYRGQGTLVTVSS
notes: as for B1
B5: the “fold over background MFI” value in [1] turned out to be 2300 fold over background; in test [2] it was 1070 fold over background; with cyno FOLR1 on CHO cells [5] it was 623 fold over background. Besides, the EC50 turned out to be 8.8 nM in test [3], 6.3 nM in test [4], 2.9 nM with cyno FOLR1 on CHO cells [6] and 5.9 nM in test [7]. Besides, the binding result in the test with CHO_huFOLR2 was “no binding (tested: 100 nM)”. Further, in the test with recombinant human FOLR1, the Kd was found to be 36 nM.

B6: anti-FOLR1 heavy chain antibody (HCAb, UniAb) clone ID 352564 (antibody, V domains shown)
VH: EVQLVESGGGLVQPGGSLRLSCAASGFSFSSYSMKWVRQAPGKGLEWVSYITSSSSTIEYADSVKGRFTISRDNAKNSLYLQMNSLRDEDTAVYYCASVGLEFDYRGQGTLVTVSS
notes: as for B1
For the molecule B6, the “fold over background MFI” value in [1] is 1790 fold over background; in test [2], 816 fold over background; in the test with cyno FOLR1 on CHO cells [5] it was 84.5 fold over background. The EC50 stood at 3.7 nM in [3], 32.6 nM in test [4], 5.7 nM with cyno FOLR1 on CHO cells [6] and 5.4 nM in test [7]. Further, the binding result in the test with CHO_huFOLR2 was “no binding (tested: 100 nM)”. Also, the Kd in the test with recombinant human FOLR1 is 81.1 nM.

B7: anti-FOLR1 heavy chain antibody (HCAb, UniAb) clone ID 358589 (antibody, V domains shown)
VH: EVQLVESGGGLVQPGGSLRLSCAASGFSFSSYSMKWVRQAPGKGLEWVSYISSSSDTIEYADSVKGRFTISRDNAKNSLYLMNSLRDEDTAVYYCASVGLDFDYRGQGTLVTVSS
notes: as for B1
On to B7, for which the “fold over background MFI” value in test [2] came to 1580 fold over background; with cyno FOLR1 on CHO cells [5], 996 fold over background. Moreover, the EC50 in test [3] came out at 3.7 nM; in test [4] it was 0.9 nM; with cyno FOLR1 on CHO cells [6] it was 1.9 nM; in [7], 3.3 nM. Besides, the binding result with mouse FOLR1 on CHO cells [8] was “no binding (tested: 100 nM (log[nM] 2))”. For the same molecule, in the test with recombinant human FOLR1, the Kd came to 22.3 nM.

B8: anti-FOLR1 heavy chain antibody (HCAb, UniAb) clone ID 358433 (antibody, V domains shown)
VH: EVQLVESGGGLVKPGGSLRLSCAASGFIFSSYSMNWVRQAPGKGLEWVSSISSGSSYIYYADSVKGRFTISRDNAKNSLYLQMNSLRAEDTAVYYCARDVTSGIAAAGSAFNIRGQGTLVTVSS
notes: Heavy chain-only antibody (no light chain), F14 family
Regarding B8, the “fold over background MFI” value stood at 1980 fold over background in test [2] and 2530 fold over background with cyno FOLR1 on CHO cells [5]. The EC50 in test [3] was 4.1 nM; in test [4], 1.3 nM; in the test with mouse FOLR1 on CHO cells [10], 3.6 nM; with cyno FOLR1 on CHO cells [6] it was 3.1 nM; in test [7] it was 5.9 nM. The Kd with recombinant human FOLR1 was found to be 6.34 nM.

B9: anti-FOLR1 heavy chain antibody (HCAb, UniAb) clone ID 358454 (antibody, V domains shown)
VH: EVQLVESGGGLVQPGGSLRLSCAASGFTFSSYSMNWVRQAPGKGLEWVSSISSGSSYIYYADSVKGRFTISRDNAKNSLYLQMNSLRAEDTAVYFCARDVTSGIAAAGSAFNIRGQGTLVTVSS
notes: as for B8
Turning to B9, the “fold over background MFI” value in [2] is 1230 fold over background; in the test with cyno FOLR1 on CHO cells [5] it was 1520 fold over background. For the same molecule, the EC50 in [3] amounted to 3.3 nM; in test [4], 1.5 nM; with mouse FOLR1 on CHO cells [10], 3.2 nM; with cyno FOLR1 on CHO cells [6], 3.4 nM; in test [7], 4.2 nM. The binding result in [9] is on record as “no binding”. For the same molecule, in the test with recombinant human FOLR1, the dissociation constant Kd turned out to be 6.78 nM.

B10: anti-FOLR1 heavy chain antibody (HCAb, UniAb) clone ID 358457 (antibody, V domains shown)
VH: EVQLVESGGGLVQPGGSLRLSCAASGFTFSSYSMNWVRQAPGKGLEWVSSISSGSSYIYYADSVKGRFTISRDNAKNSLYLQMNSLRDEDTAVYYCARDVTSGIAAAGSAFNIRGQGTLVTVSS
notes: as for B8
B10: the “fold over background MFI” value in test [2] worked out at 2080 fold over background; in the test with cyno FOLR1 on CHO cells [5] it was 2520 fold over background. Also, the EC50 in test [3] was found to be 3.6 nM; in [4], 1.1 nM; in the test with mouse FOLR1 on CHO cells [10] it was 2.5 nM; with cyno FOLR1 on CHO cells [6], 3 nM; in test [7], 4.6 nM. Besides, the Kd with recombinant human FOLR1 was 6.82 nM.

B11: anti-FOLR1 heavy chain antibody (HCAb, UniAb) clone ID 358474 (antibody, V domains shown)
VH: EVQLVESGGGLVKPGGSLRLSCAASGFTFSSYSMNWVRQAPGKGLEWVSSISSGSSYIYYADSVKGRFTISRDNAKNSLYLQMNSLRAEDTAIYYCARDVTSGIAAAGSAFNIRGQGTLVTVSS
notes: as for B8
As for B11, the entries for the “fold over background MFI” value (in test [2]; with cyno FOLR1 on CHO cells [5]) were 2240 fold over background and 2350 fold over background, respectively. Moreover, the 50% effective concentration (EC50) is 4 nM in test [3]; 1.2 nM in test [4]; 2.6 nM with mouse FOLR1 on CHO cells [10]; 4.3 nM with cyno FOLR1 on CHO cells [6]; 4 nM in test [7]. Also, the binding result in test [9] is recorded as “no binding”. Also, the Kd in the test with recombinant human FOLR1 is 7.62 nM.
